These results are taken from PMC9365698 (2022).

Common to all, as to experiment: SPR
A general note: In SPR one partner is held on a chip, and binding of the other changes the refractive index at the surface.

For one data set, the target named is T1, TNR16 (Homo sapiens).
T1 chain: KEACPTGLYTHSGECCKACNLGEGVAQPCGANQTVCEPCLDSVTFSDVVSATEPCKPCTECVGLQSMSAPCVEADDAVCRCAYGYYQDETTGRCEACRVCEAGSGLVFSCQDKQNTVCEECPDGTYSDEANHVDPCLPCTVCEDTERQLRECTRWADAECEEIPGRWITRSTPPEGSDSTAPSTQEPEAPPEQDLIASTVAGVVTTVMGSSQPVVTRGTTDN

The next data set has as its target T2, PI16 (Homo sapiens).
T2 chain: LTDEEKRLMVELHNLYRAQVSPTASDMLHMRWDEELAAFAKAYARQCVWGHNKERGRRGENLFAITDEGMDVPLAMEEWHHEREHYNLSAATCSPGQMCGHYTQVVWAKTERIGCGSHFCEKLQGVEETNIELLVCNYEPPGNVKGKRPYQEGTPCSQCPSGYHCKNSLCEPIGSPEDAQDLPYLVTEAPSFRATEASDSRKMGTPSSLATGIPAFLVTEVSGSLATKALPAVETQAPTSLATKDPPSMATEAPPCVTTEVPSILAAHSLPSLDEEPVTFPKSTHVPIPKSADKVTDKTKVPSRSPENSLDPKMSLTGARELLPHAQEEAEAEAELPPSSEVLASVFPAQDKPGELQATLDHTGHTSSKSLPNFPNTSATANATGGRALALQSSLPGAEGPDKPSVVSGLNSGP

Another data set concerns the target T3, PVR (human, UniProt P15151 21-343, biotin on the biotin-acceptor site (enzymatic, co-transfected BirA)).
T3 chain: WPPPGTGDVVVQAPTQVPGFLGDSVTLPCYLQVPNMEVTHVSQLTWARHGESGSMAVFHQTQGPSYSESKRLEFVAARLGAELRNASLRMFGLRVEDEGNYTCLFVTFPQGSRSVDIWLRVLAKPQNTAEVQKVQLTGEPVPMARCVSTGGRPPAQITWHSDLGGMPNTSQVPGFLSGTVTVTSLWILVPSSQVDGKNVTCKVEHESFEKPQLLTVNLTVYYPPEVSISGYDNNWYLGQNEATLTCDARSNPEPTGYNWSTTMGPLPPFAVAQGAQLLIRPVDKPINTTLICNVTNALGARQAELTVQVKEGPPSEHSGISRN

The target in a further data set is JAG1 (human, UniProt P78504 34-1067, biotin on the biotin-acceptor site (enzymatic, co-transfected BirA)).
The data set “SPR” concerns the molecule itself.
Another data set concerns the target T4, CNTN1 (human, UniProt Q12860 21-993, biotin on the biotin-acceptor site (enzymatic, co-transfected BirA)).
T4 chain: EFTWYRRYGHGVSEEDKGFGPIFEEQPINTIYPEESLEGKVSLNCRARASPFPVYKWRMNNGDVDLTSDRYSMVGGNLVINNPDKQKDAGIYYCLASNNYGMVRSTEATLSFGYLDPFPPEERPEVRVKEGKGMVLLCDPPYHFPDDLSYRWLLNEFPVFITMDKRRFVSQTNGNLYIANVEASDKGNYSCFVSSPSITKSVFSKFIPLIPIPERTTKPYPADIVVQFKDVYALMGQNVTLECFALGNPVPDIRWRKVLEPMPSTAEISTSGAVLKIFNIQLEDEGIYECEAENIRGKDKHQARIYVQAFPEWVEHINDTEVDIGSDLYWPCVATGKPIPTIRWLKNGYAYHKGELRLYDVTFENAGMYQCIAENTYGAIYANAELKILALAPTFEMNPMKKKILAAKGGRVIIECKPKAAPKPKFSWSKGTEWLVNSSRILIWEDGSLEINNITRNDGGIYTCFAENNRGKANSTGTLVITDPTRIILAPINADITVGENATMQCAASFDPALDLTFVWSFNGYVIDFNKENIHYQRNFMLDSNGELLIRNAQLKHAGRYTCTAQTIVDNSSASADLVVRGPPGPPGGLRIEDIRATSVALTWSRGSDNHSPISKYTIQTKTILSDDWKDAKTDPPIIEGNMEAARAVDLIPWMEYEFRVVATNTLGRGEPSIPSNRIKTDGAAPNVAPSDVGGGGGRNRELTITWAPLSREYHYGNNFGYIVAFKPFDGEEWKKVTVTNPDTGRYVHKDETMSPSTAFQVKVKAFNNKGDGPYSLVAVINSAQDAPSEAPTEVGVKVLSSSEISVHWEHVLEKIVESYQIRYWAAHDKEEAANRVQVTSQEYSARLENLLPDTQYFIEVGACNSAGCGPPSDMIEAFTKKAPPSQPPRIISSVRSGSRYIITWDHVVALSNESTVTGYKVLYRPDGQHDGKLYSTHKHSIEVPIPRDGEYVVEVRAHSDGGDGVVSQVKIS

In a further data set the target is FGFR2 (Homo sapiens).
In another data set the target is T5, CDH2 (Homo sapiens).
T5 chain: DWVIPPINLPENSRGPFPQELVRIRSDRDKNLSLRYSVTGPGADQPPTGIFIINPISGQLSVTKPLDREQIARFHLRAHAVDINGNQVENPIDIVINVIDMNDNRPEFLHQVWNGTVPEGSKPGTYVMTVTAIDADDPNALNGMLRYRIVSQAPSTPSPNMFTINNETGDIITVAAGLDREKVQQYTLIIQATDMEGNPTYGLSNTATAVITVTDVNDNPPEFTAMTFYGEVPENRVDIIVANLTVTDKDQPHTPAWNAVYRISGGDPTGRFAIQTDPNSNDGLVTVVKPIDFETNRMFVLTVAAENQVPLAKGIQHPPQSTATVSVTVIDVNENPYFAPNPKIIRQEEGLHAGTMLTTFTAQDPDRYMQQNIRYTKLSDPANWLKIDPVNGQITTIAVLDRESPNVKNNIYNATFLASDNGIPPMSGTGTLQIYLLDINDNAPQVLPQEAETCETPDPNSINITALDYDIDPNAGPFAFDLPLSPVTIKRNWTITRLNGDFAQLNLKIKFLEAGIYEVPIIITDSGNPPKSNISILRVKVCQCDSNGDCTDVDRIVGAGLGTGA

B1: CD80 (protein)
chain: VIHVTKEVKEVATLSCGHNVSVEELAQTRIYWQKEKKMVLTMMSGDMNIWPEYKNRTIFDITNNLSIVILALRPSDEGTYECVVLKYEKDAFKREHLAEVTLSVKADFPTPSISDFEIPTSNIRRIICSTSGGFPEPHLSWLENGEELNAINTTVSQDPETELYAVSSKLDFNMTTNHSFMCLIKYGHLRVNQTFNWNTTKQEHFPDN
A word on the koff: it is the first-order rate constant of dissociation. B1 returned a koff with TNR16 of approximately 1.4 s⁻¹.

B2: TNR21 (protein)
chain: QPEQKASNLIGTYRHVDRATGQVLTCDKCPAGTYVSEHCTNTSLRVCSSCPVGTFTRHENGIEKCHDCSQPCPWPMIEKLPCAALTDRECTCPPGMFQSNATCAPHTVCPVGWGVRKKGTETEDVRCKQCARGTFSDVPSSVMKCKAYTDCLSQNLVVIKPGTKETDNVCGTLPSFSSSTSPSPGTAIFPRPEHMETHEVPSSTYVPKGMNSTESNSSASVRPKVLSSIQEGTVPDNTSSARGKEDVNKTLPNLQVVNHQQGPHHRHILKLLPSMEATGGEKSSTPIKGPKRGHPRQNLHKHFDINEH
Molecule B2 came in with a koff with PI16 of approximately 2 s⁻¹.

B3: KIR2DL5A (receptor)
chain: HEGGQDKPLLSAWPSAVVPRGGHVTLLCRSRLGFTIFSLYKEDGVPVPELYNKIFWKSILMGPVTPAHAGTYRCRGSHPRSPIEWSAPSNPLVIVVTGLFGKPSLSAQPGPTVRTGENVTLSCSSRSSFDMYHLSREGRAHEPRLPAVPSVNGTFQADFPLGPATHGGTYTCFGSLHDSPYEWSDPSDPLLVSVTGNSSSSSSSPTEPSSKTGIRRH
modifications: biotin on the biotin-acceptor site (enzymatic, co-transfected BirA)
Molecule B3 displayed a koff with PVR of approximately 0.9 s⁻¹.

B4: VASN (receptor)
chain: CPSGCQCSQPQTVFCTARQGTTVPRDVPPDTVGLYVFENGITMLDAGSFAGLPGLQLLDLSQNQIASLPSGVFQPLANLSNLDLTANRLHEITNETFRGLRRLERLYLGKNRIRHIQPGAFDTLDRLLELKLQDNELRALPPLRLPRLLLLDLSHNSLLALEPGILDTANVEALRLAGLGLQQLDEGLFSRLRNLHDLDVSDNQLERVPPVIRGLRGLTRLRLAGNTRIAQLRPEDLAGLAALQELDVSNLSLQALPGDLSGLFPRLRLLAAARNPFNCVCPLSWFGPWVRESHVTLASPEETRCHFPPKNAGRLLLELDYADFGCPATTTTATVPTTRPVVREPTALSSSLAPTWLSPTEPATEAPSPPSTAPPTVGPVPQPQDCPPSTCLNGGTCHLGTRHHLACLCPEGFTGLYCESQMGQGTRPSPTPVTPRPPRSLTLGIEPVSPTSLRVGLQRYLQGSSVQLRSLRLTYRNLSGPDKRLVTLRLPASLAEYTVTQLRPNATYSVCVMPLGPGRVPEGEEACGEAHTPPAVHSNHAPVTQAREGNLP
modifications: biotin on the biotin-acceptor site (enzymatic, co-transfected BirA)
In turn, B4 showed a dissociation rate constant (koff) with JAG1 of approximately 0.1 s⁻¹.

B5: MPZL1 (protein)
chain: SALEVYTPKEIFVANGTQGKLTCKFKSTSTTGGLTSVSWSFQPEGADTTVSFFHYSQGQVYLGNYPPFKDRISWAGDLDKKDASINIENMQFIHNGTYICDVKNPPDIVVQPGHIRLYVVEKENLPV
The molecule B5 had a koff in the data set “SPR” of approximately 0.6 s⁻¹.

B6: NRCAM (protein)
chain: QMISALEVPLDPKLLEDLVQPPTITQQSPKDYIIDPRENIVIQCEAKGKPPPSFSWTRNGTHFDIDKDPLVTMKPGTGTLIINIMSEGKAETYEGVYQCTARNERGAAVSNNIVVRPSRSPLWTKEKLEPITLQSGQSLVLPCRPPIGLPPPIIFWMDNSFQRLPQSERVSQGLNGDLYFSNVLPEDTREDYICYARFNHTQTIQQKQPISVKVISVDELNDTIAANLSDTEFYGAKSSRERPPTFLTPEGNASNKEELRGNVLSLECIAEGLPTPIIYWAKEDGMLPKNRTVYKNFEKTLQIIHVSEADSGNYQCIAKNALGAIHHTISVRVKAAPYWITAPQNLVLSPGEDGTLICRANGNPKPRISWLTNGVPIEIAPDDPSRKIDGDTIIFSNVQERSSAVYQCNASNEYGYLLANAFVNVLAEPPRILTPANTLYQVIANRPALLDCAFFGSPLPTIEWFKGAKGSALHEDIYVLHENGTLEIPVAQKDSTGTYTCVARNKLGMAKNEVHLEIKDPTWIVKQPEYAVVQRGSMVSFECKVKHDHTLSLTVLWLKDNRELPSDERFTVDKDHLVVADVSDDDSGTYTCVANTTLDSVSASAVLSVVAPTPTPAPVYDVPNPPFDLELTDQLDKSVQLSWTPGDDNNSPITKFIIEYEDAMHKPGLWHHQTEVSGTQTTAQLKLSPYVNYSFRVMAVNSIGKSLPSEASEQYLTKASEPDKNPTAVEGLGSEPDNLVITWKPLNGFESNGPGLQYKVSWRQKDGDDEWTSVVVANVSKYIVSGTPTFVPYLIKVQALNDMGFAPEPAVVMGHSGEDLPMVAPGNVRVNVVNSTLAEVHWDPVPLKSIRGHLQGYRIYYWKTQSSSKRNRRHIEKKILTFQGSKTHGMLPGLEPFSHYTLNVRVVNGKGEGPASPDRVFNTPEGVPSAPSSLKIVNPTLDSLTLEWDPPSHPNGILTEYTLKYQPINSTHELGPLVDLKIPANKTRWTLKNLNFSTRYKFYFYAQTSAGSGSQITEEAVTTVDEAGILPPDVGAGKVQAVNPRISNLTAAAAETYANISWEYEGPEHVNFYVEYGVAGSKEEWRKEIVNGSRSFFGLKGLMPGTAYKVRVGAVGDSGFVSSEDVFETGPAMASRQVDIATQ
Take B6: in the data set with CNTN1, the off-rate (koff) was approximately 0.7 s⁻¹.

B7: FCER2 (protein)
chain: DTTQSLKQLEERAARNVSQVSKNLESHHGDQMAQKSQSTQISQELEELRAEQQRLKSQDLELSWNLNGLQADLSSFKSQELNERNEASDLLERLREEVTKLRMELQVSSGFVCNTCPEKWINFQRKCYYFGKGTKQWVHARYACDDMEGQLVSIHSPEEQDFLTKHASHTGSWIGLRNLDLKGEFIWVDGSHVDYSNWAPGEPTSRSQGEDCVMMRGSGRWNDAFCDRKLGAWVCDRLATCTPPASEGSAESMGPDSRPDPDGRLPTPSAPLHS
B7: the off-rate (koff) in the data set with FGFR2 was approximately 0.01 s⁻¹.

B8: FCER2 (protein)
chain: DTTQSLKQLEERAARNVSQVSKNLESHHGDQMAQKSQSTQISQELEELRAEQQRLKSQDLELSWNLNGLQADLSSFKSQELNERNEASDLLERLREEVTKLRMELQVSSGFVCNTCPEKWINFQRKCYYFGKGTKQWVHARYACDDMEGQLVSIHSPEEQDFLTKHASHTGSWIGLRNLDLKGEFIWVDGSHVDYSNWAPGEPTSRSQGEDCVMMRGSGRWNDAFCDRKLGAWVCDRLATCTPPASEGSAESMGPDSRPDPDGRLPTPSAPLHS
modifications: propeptide assumed removed
Regarding B8, the koff with CDH2 is approximately 0.6 s⁻¹.
